# The DeepSol protein solubility set
# Assay: soluble on expression in E. coli; label from the status in PepcDB or PDB records
row,Sequence,soluble on expression in E. coli
1,MQSWSRVYCSLAKRGHFNRISHGLQGLSAVPLRTYADQPIDADVTVIGSGPGGYVAAIKAAQLGFKTVCIEKNETLGGTCLNVGCIPSKALLNNSHYYHMAHGTDFASRGIEMSEVRLNLDKMMEQKSTAVKALTGGIAHLFKQNKVVHVNGYGKITGKNQVTATKADGGTQVIDTKNILIATGSEVTPFPGITIDEDTIVSSTGALSLKKVPEKMVVIGAGVIGVELGSVWQRLGADVTAVEFLGHVGGVGIDMEISKNFQRILQKQGFKFKLNTKVTGATKKSDGKIDVSIEAASGGKAEVITCDVLLVCIGRRPFTKNLGLEELGIELDPRGRIPVNTRFQTKIPNIYAIGDVVAGPMLAHKAEDEGIICVEGMAGGAVHIDYNCVPSVIYTHPEVAWVGKSEEQLKEEGIEYKVGKFPFAANSRAKTNADTDGMVKILGQKSTDRVLGAHILGPGAGEMVNEAALALEYGASCEDIARVCHAHPTLSEAFREANLAASFGKSINF,not soluble
2,MENSHKRGRPDILHQALLVILTDPVIKGDIFIHTIQSKIIKVNPNMRPPKNYLRFIGLMEQLLKYGKIPINGDETLMEVTNLTLDNIVNRYDLILLSEKGEKINPEEICKLDEKWLLGIGAFPHGDFSDKILNLAKKIYSISGFPLETQQVLCRIFSACNS,soluble
3,MAHHHHHHMRTSDARPASPSAAPPQSRKYQLSQRPLQLPRPPPRRFLEHPHHNLLPCTSDVKRLMENEYELRRVVRDVLLERLGMEGSHVEPPLRLCTEDSAEVTASPFCAVASVSTPLSSAGESAKQPRCAHDTGLRSMRAPDVDDIAGSSQPTWLMPWLQRLRMEQEKQLRQMRKMLVVARRSVSPDSSDVDARASSLMKTTGEARDDTRTAEPPHALLWQRHRCLPPADRPEAVEACSTLRAMQETMQAQSTQLARLEELLQETLIPDTARRTSHGAGALPLPSPSVHQVEAAAAARANHTGHRSRSNDTVLPTLTHTAASPKKNVRRAVPSRSGCSADVPAAAAAAAAATSSRVSTCVSAPSPPPRLHPEKRTLCGGVH,not soluble
4,MSIEQTLSQYLPSHPKPQGVTFTYGTAGFRMKADKLDYVTFTVGIIASLRSKYLQGKTVGVMITASHNPPEDNGVKVVDPLGSMLESSWEKYATDLANASPSPSNDSEGEKNSLVEVIKNLVSDLKIDLSIPANVVIARDSRESSPALSMATIDGFQSVPNTKYQDFGLFTTPELHYVTRTLNDPDFGKPTEDGYYSKLAKSFQEIYTICESNNEKIDITIDAANGVGAPKIQELLEKYLHKEISFTVVNGDYKQPNLLNFDCGADYVKTNQKLPKNVKPVNNKLYASFDGDADRLICYYQNNDNKFKLLDGDKLSTLFALFLQQLFKQIDPTKISLNIGVVQTAYANGSSTKYVEDVLKIPVRCTPTGVKHLHHEAENFDIGVYFEANGHGTVIFNPEAEKKIFDYKPNNDNEAKAIKVLQNFSQLINQTVGDAISDLLAVLIVVHYLKLSPSDWDNEYTDLPNKLVKVIVPDRSIFKTTNAERTLVEPKGMQDEIDKLVAQYPNGRSFVRASGTEDAVRVYAEADTQNNVEELSKAVSELVK,soluble
5,SLETQQEGMDISSSLRKLGAQSKLIQTYIDQSLMSPNVQLEEVTALNTNQFLIKQDMKEWSSELYPQLILLNSKSKGFVTKFNSYYPTLKSFVDNKEDREGFSDRLEVLQEMAMTNQENTQRQINELTDLKLQLDKKLKDFDTNVATAQGILSTDGTGKIDQLKNEILNTKKAIQNDLQQIALIPGALNEQGFAIFKEVYSLSKEIIEPAAQAGVAAYNKGKEINNSILEAEKKAVQEATEQGKTALEIESAKKAAREAIEKSKQGEIAAAAAAKTQEYDLMKVIDTEKIKKTFGVFAEVNKLTAEQRAYLDDLEKQNQKIYDLTTKLSIADLQKSMLLLTQNDLHTFANQIDVELDLLKRYKEDLNLIKNSITKLSTNVDTTSEQSQKDTLRQLKNVISYLEEQVYKF,soluble
6,MSEFSQTALFPSLPRTARGTAVVLGNTPAGDKIQYCNGTSVYTVPVGSLTDTEIYTEHSHQTTVAKTSPSGYYCASGDVHGNVRIWDTTQTTHILKTTIPVFSGPVKDISWDSESKRIAAVGEGRERFGHVFLFDTGTSNGNLTGQARAMNSVDFKPSRPFRIISGSDDNTVAIFEGPPFKFKSTFGEHTKFVHSVRYNPDGSLFASTGGDGTIVLYNGVDGTKTGVFEDDSLKNVAHSGSVFGLTWSPDGTKIASASADKTIKIWNVATLKVEKTIPVGTRIEDQQLGIIWTKQALVSISANGFINFVNPELGSIDQVRYGHNKAITALSSSADGKTLFSADAEGHINSWDISTGISNRVFPDVHATMITGIKTTSKGDLFTVSWDDHLKVVPAGGSGVDSSKAVANKLSSQPLGLAVSADGDIAVAACYKHIAIYSHGKLTEVPISYNSSCVALSNDKQFVAVGGQDSKVHVYKLSGASVSEVKTIVHPAEITSVAFSNNGAFLVATDQSRKVIPYSVANNFELAHTNSWTFHTAKVACVSWSPDNVRLATGSLDNSVIVWNMNKPSDHPIIIKGAHAMSSVNSVIWLNETTIVSAGQDSNIKFWNVPF,soluble
7,MSENHVPAWKRIALKRQTISSGDESKEKGQSNLIDDDPLNITTHLSTGNLTKKEKKRIINGESKSSTKKGKRVSKPGTKKKEKLSKDEKNSKKNKILKDQLRYLIEFFRTKSESKFPTGILELESVKENYGDSLIKDEPSESGVVEVWKFSKQKQNWLIKHFFNLDEIPSVYNDLLLLYFRDLQGKSKEELISKCKGKLKQWNDYVEDQETKIKALIAEDKASEPINGEEKEEGEKDGNAEQGKQKEVQDEQEEVQMPNKELVQRSLKLLEIWKNDDSEQIELKNFFVDV,soluble
8,MRLDRYLSNSGVGTRKEVKKLIKQGRVTVNGRVVLDPGHPVLENDAVALDGEVVRFHKKVYILFYKPSGYVTSTKDPHSETIMEFLPPLKGIFPVGRLDKDAEGLLIITNDGDFAHRVISPKWSVEKEYIVKVEGEVTEDKIEKLKNGVTLRDGFFAKAKRVEKLSNDTLKIVITEGKYHQIKRMTAAVGLKTVHLKRTRIGGLVLPDDMKPGEYRFLSEEEVKKVFEREDQKEDTPRS,not soluble
9,GAADKRIDGNGNPETREIKISDYDEITFVGSADFEYEQSDKAPYLSVTIDENLFDYLVTEVEGGTLKIYPKSIKKGFNNNSYDLRPTVYKIKSNSKELKELNTVGSGSFIISKPTKVNRMEINMAGSGNVELRGPVKGYKLECNMAGSGNIIAKDIQLDNLSCSLASSGEIEVIGTVDRASFNVAGSGEIKAFDCQARKAECNIASSGEISVYATQILDANIVGSGEIHYKGDPEISKSIMGSGSINKVK,soluble
10,MSLQNFDFNEALKGIQAGKPITGSDGVLAPLIKQLTEAALNAEIQSHLEQSSTSNRRNGYSKKTVKSAAGSFELETPRDRNGEYEPVLVKKHQTKLTAEIDSRILSLFSHGMSYRDIRHHIAEIYQLEVSEATISSITDELIPQLKAWQSRPLDSVYPFVWLDAIHYKVKDEGRYVSKAIYTLLALNTEGKKELIGLYCSESEGANYWLSVLTDLHNRGVQDILIACVDGLKGFPEAINAIFPNTEVQLCVIHQIRNSIRYVASRDQKAFMRDLKPVYKAVNKESAELALDDLEAVWGDQYPAVIKSWRDKWHLLSAYFKYPEAVRKPIYTTNAVEAVHRQFRKLTKTKGAFPNETSLLKLLYVGMLNASAKWTMPIRNWGQTMMQLSIYFPGRLDSVMREGHHHHHH,soluble
11,KIIEEFIDSLFSGVVETSETKQLKADLLANAEDRYEDLLSQGKSENEAIGTIISEFGTIDELMEELNLENKQVDEPNDS,not soluble
12,MICCLGPRGSYSEKAAVTFSKAINDSEIQFEDSIYNVFKAVETNPEFFGVVPSENSIGGSVSITQDLLLEFPVKILGEVDISINHCLLGYDIKKVTEVLAHPQALAQCGHYITKNNWNITPVDSNAKAAKIVSEEKDEKLAAICGVENAEIYGLNVLDEYIQDFKNNTTRFFLICNKNK,not soluble
13,GMSSSGTSITCEVGLQLIVPDRAPVPLVARLDYSVDDPYAIRAAFHVGDDEPVEWIFARELLTVGIIRETGEGDVRIWPSQDGKERMVNIALSSPFGQARFHAQVAPLSEFLHRTYELVPAGQESDYIDIDAEIAEHLS,soluble
14,MVNLQEYQSKKLMSDNGVKVQRFFVADTANEALEAAKRLNAKEIVLKAQILAGGRGKGVFSSGLKGGVHLTKDPEVVGQLAKQMIGYNLATKQTPKEGVKVNKVMVAEALDISRETYLAILMDRSCNGPVLVGSPQGGVDIEEVAASNPELIFKEQIDIIEGIKDSQAQRMAENLGFLGPLQNQAADQIKKLYNLFLKIDATQVEVNPFGETPEGQVVCFDAKINFDDNAEFRQKDIFAMDDKSENEPIENEAAKYDLKYIGLDGNIACFVNGAGLAMATCDIIFLNGGKPANFLDLGGGVKESQVYQAFKLLTADPKVEAILVNIFGGIVNCAIIANGITKACRELELKVPLVVRLEGTNVHEAQNILTNSGLPITSAVDLEDAAKKAVASVTKK,soluble
15,MGSDKIHHHHHHMAWLLVGTKKYEDFEKNERVNRWYLNVRARSPISADIWRRSLLRYCTINNTTPEGLLDMAQKGTLKDNFQDFTIRMIAEGRRGAYLAKVKEILHSWIRFNDIDYKIRINIPNERLNETTMDERVPTKEELSKILRMGTVRSRVSVSLMAFSGLRPEVLGNYEGTDGLTLGDIEDLDIDTLTFKNVPAKINVRNGLSKTRLKYFTFLGQEGCGYLKDYLDHRKASGEILKKESALLAPDPGNVQTAHGFLRTALIAREIRKAIRNSNLSMRPYVLRVYFATALDIAESKGSISHPWRQYIMGHKGDIEATYSTNKRLLPETIEGMRSAYLKCTKFFETEEKGIKEEDYQKMLRDSAIDTLTGAFGITLTDDQKEELRNLDTAEYQKRLGEIFKDRKADLLNNGNSQKVIPFKDVEKYIEQGWEYVRDFPGNKAIVRLPS,not soluble
16,MLDHNRLEEFIEQIRLTPAIWKNREFDISREHMNEIWAHFGHTFDISPKEAEMQWEYLIRLHRFMNRNASLEQFRIEVPSLEDDFTPADTLVAESLAIFLKPTLDELLLISKPSETSV,not soluble
17,MNPIQHILDTYPLIVLDGAMATELERKGCNLNDSLWSAKILMEEPELIKQVHTDYFAAGADCAITASYQSTFEGFAARGLSEAEARRLIELSVSIAAEARDEFWSLEENRLNRPKPIIAASIGPYGAYLADGSEYRGNYAISEDELIEFHRPRMKALIEAGADVLACETIPCLTEAKAIVRLLKEFPETYAWISFSAKDGLHISDGTPAADCASWLDEHRQIAALGINCTPLQHIPSLIEELKKNTSKPIIVYPNSGEQYDPETKTWNGAACAESYGASARTWHEKGARLIGGCCRTKPENIQEIAAWARSLKTT,soluble
18,MGSDKIHHHHHHMQDFSNLVEKVENTLIPYFRKIEKRALFNQEKVLNAFHHVKASESDLQGSTGYGYDDFGRDHLEQIYAHTFKADDALVRPQIISGTHAITLALQSTLKNNDELLYITGSPYDTLLEVIGINGNGVESLKEYGVRYNEVELRDGRIDIPKVITAINDNTKVVAIQRSKGYDQRPSITINEIEQAITSIKEVYPNIIIFVDNCYGEFVEDKEPIEVGADLIAGSLIKNPGGGLAKIGGYIAGRQDLIERCGYRLTAPGIGKEAGASLNSLQEMYQGFFLAPHVVSQSLKGALFTSLLLEKINMKTSPKYNVYRTDLIQTVQFETKEQMISFCQSIQHASPINAHFSPEPSYMPGYEDDVIMAAGTFIQGSSIELSADGPIRPPYEAYVQGGLTYEHVKLAVTRAVQHMQENNLL,not soluble
